# Reference: article doi:10.1101/620195, “Modulation of DNA polymerase IV activity by UmuD and RecA* observed by single-molecule time-lapse microscopy” (bioRxiv, 2019)
# T1: E. coli RecA(E38K) protein (E. coli, UniProt P0A7G6 1-353, E38K)
# T1 construct: RecA recombinase, E. coli, with the E38K mutation (allele recA730); In the assay it stood as a filament assembled with ATPγS on a biotinylated 60-mer dsDNA held on a streptavidin chip; also called recA730; RecA(E38K)-ATPγS filaments
# T1 sequence (looked up): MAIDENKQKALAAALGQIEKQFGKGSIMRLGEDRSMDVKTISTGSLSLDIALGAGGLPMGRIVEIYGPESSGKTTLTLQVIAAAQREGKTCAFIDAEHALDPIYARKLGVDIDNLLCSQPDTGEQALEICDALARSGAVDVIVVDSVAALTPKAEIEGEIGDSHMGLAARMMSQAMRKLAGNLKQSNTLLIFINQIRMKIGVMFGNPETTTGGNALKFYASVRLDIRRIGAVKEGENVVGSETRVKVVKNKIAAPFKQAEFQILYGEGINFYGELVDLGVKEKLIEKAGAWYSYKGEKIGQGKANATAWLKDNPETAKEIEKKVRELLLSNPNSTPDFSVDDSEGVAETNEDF
# Biological target: T1, E. coli RecA(E38K) protein
# Experiment: SPR; BIAcore T200, SA chip; RecA(E38K) filaments assembled on immobilised biotinylated 60-mer dsDNA; 0.65 uM pol IV injected for 220 s at 5 uL/min; 20 °C; 20 mM Tris-HCl pH 8.0, 10 mM KCl, 10 mM MgCl2, 0.005% surfactant P20, 0.5 mM dithiothreitol, 0.5 mM ATPγS
# Details: both partners purified
binder,measurement,value
"DNA polymerase IV (pol IV) (enzyme, E. coli, UniProt Q47155 1-351, looked up, DNA polymerase IV, product of dinB, E. coli; Native pol IV, no tag, > 99% pure; also called DinB) MRKIIHVDMDCFFAAVEMRDNPALRDIPIAIGGSRERRGVISTANYPARKFGVRSAMPTGMALKLCPHLTLLPGRFDAYKEASNHIREIFSRYTSRIEPLSLDEAYLDVTDSVHCHGSATLIAQEIRQTIFNELQLTASAGVAPVKFLAKIASDMNKPNGQFVITPAEVPAFLQTLPLAKIPGVGKVSAAKLEAMGLRTCGDVQKCDLVMLLKRFGKFGRILWERSQGIDERDVNSERLRKSVGVERTMAEDIHHWSECEAIIERLYPELERRLAKVKPDLLIARQGVKLKFDDFQQTTQEHVWPRLNKADLIATARKTWDERRGGRGVRLVGLHVTLLDPQMERQLVLGL",binding result,binds
